Here are results for two molecules from publication PMC11840927, “Frataxin Traps Low Abundance Quaternary Structure to Stimulate Human Fe–S Cluster Biosynthesis” (Biochemistry, 2025).

Experiment [1] concerns the target SDAec complex with the Q64S, P299H, L300Q NFS1 triple variant (human | Escherichia coli) (UniProt Q9Y697).
Experiment [2] has as its target T1, NFS1(Δ1–55) with N-terminal His6 tag (human, UniProt Q9Y697 56-457, covalently attached PLP).
T1 construct: NFS1, human cysteine desulfurase, Δ1–55 (residues 56 to the C-terminus); The NFS1 chain of m1; also called α subunit; source: recombinant, co-purified within the SDAec complex; not shown: His6, N-terminal, kept
The experiment can be described thus: native MS; protomer exchange: 1:1 mix of 15N- and 14N-labelled SDAec (or His-tagged and untagged IscS), room temperature, 200 mM ammonium acetate pH 8.5, EMR Orbitrap; ratio of exchanged dimer to the sum of unexchanged dimers; α2β2γ2 (or IscS dimer) to protomers and back. To be noted: both partners purified.

Molecule “FXN (Δ1–81) (from UniProt Q16595 82-210) (natural protein)” registered an FXN-stimulated cysteine desulfurase activity (μM S^2–/min·μM NFS1) in experiment [1] of 8.

B1: Escherichia coli acyl-carrier protein (natural protein)
chain: MSTIEERVKKIIGEQLGVKQEEVTNNASFVEDLGADSLDTVELVMALEEEFDTEIPDEEAEKITTVQAAIDYINGHQA
modifications: acyl-4′PPT (assumed mass 523 Da)
notes: Escherichia coli acyl-carrier protein (ACPec) associated with NFS1-ISD11; The ACP chain of m1; also called ACPec; ACP; source: co-purified within the SDAec complex
Take B1: the binding result in experiment [2] is given as “binds”.
